{"source": "paper PMC9898101", "system": "MBP-ERS WT (human)", "experiment": "EMSA", "settings": "1 mM Mg2+; 5 ug/mL heparin (unit prefix not given); none (in vitro transcript); 25 mM Tris-HCl pH 7.5, 50 mM NaCl, 1 mM MgCl2, 1 mM DTT, 5 ug/mL heparin (prefix not given), 10 nM 32P-tRNA, room temperature 30 min; native 4-16% gel on …"}
{"substance": "human tRNAGlu(TTC)", "values": [{"measurement": "Kd", "result": 516, "unit": "nM"}]}
